Results on five substances are retold here after patent US20240335553A1.

Assay [1] addresses cation-independent mannose-6-phosphate receptor (CI-MPR), recombinant human IGF-II R (human) (UniProt P11717). Briefly: SPR (Biacore T200), CI-MPR immobilized on a CM5 chip, antibody as analyte in 2-fold dilutions from 500 nM to 0.98 nM. In general terms: In SPR one partner is held on a chip, and binding of the other changes the refractive index at the surface.
For assay [2] the target is unchanged. As to the kind of experiment: SPR, CI-MPR immobilized, 1:1 Langmuir global fit.
Assay [3] shares this target. As to the kind of experiment: SPR, CI-MPR immobilized, antibody as analyte, 2-fold dilutions from 500 nM.
Assay [4] shares this target. Briefly: SPR, CI-MPR immobilized, steady-state fitting.
The target is the same in assay [5]. As to the kind of experiment: SPR, CI-MPR immobilized.
The target of assay [6] is epidermal growth factor receptor (EGFR) (human) (UniProt P00533). Briefly: cell-based or functional assay.

Take “trastuzumab M6P-glycoform 3 (trastuzumab carrying the M6P tetrasaccharide glycan at the Fc domain) (antibody)”: the dissociation constant (Kd) stood at 0.0286 µM in assay [1], 0.0286 µM in assay [2] and 0.0302 µM in assay [3].

For the substance “trastuzumab M6P-glycoform 6 (trastuzumab carrying the M6P-Man3GlcNAc2 glycan) (antibody)”, the Kd in assay [4] amounted to 0.7 µM.

Take “trastuzumab M6P-glycoform 7 (trastuzumab carrying the bis-phosphorylated heptasaccharide moiety) (antibody)”: the Kd in assay [1] and in assay [2] was 0.0054 µM each time. Besides, in assay [5], the fold affinity against glycoform (3) amounted to 4 fold.

As for “cetuximab M6P-glycoform 9 (cetuximab carrying the M6P tetrasaccharide glycan at the Fc domain) (antibody)”, the Kd in assay [1] was 0.0703 µM; in assay [2], 0.0703 µM; in assay [3] it was 0.0724 µM. Moreover, in assay [6], the degradation of total EGFR in HepG2 cells (Western blot, 48 h, 10 nM antibody) amounted to 57%.

Consider “cetuximab M6P-glycoform 10 (cetuximab carrying the bis-phosphorylated heptasaccharide N-glycan) (antibody)”, for which the Kd in assay [1] and in assay [2] was 0.0296 µM throughout. In addition, the fold affinity against glycoform (9) in assay [5] turned out to be 2 fold.

For orientation: Kd means the equilibrium constant for the complex coming apart.
